Test [1] has as its target Human HSP90β (human) (UniProt P08238). The experiment in a line: cryo-EM structure.
For test [2] the target is unchanged. The experiment in a line: cryo-EM structure. This is another data set of the same source.

The text below walks through data of publication doi:10.1101/2025.10.17.682828.

Read-outs that look alike come from different tables or passages of the source.

Human HSP90β, P08238 3-724 (natural protein; other documents disagree on this pair), sequence (P08238 3-724): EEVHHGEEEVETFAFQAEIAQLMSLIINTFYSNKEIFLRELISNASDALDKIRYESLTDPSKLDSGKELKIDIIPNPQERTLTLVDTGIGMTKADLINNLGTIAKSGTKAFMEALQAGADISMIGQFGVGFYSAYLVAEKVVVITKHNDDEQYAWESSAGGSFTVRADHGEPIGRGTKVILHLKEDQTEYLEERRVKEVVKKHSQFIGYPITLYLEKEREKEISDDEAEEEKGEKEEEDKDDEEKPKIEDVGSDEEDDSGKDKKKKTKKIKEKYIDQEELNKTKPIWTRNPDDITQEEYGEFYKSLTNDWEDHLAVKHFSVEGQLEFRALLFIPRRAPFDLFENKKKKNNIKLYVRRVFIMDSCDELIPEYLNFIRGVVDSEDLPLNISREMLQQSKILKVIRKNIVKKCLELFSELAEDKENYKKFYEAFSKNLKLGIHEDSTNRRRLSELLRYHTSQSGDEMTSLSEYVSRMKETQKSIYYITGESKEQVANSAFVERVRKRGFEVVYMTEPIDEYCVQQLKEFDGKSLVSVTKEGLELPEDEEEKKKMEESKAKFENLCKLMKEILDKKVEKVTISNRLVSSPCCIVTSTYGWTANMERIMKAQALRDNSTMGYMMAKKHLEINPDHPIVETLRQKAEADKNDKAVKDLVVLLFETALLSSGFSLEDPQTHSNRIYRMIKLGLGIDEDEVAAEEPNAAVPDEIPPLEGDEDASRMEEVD

Take “Human HSP90β, P08238 3-724 (natural protein; other documents disagree on this pair)”: the stoichiometry N with Human HSP90β (human) [1] and in the test with Human HSP90β (human) [2] was 2 in each case.

In general, stoichiometry N refers to the number of molecules, sites or subunits per partner or assembly.
